Patent US20240294670A1 (University of Texas, published 2024)

How the values were obtained:
Test in all cases: anti-His co-IP of rCHI3L1 from Kupffer cell lysate, MS; listed under 'proteins bound to CHI3L1'
Q5FW97_MOUSE = target: T1, Q5FW97_MOUSE (mouse, UniProt Q5FW97 2-434)
T1 construct: also called tr|Q5FW97|Q5FW97_MOUSE
Experimental: (§1) CHI3L1 interacts with CD44 on KCs. To further understand how CHI3L1 mediates the function of KCs to recruit platelets, the inventors set out to identify its receptor on KCs. They isolated KCs from WT mice treated with APAP for 3 h and incubated the cells with His-tagged rCHI3L1. The cell lysate was subjected to immunoprecipitation using an anti-His antibody. The “pulled down” fraction was subjected to LC/MS analyses. A partial list of proteins identified, including CHI3L1 itself, is shown in (Extended Data Table 1). Because CD44 is a cell membrane protein, the inventors decided to investigate it is a receptor for CHI3L1. They performed/immunoprecipitation experiments using liver homogenates obtained from WT and CD44^{-/-} mice after APAP treatment. […] Moreover, the inventors incubated rhCHI3L1 with human CD44 and then immunoprecipitated with an anti-CD44 antibody. The data confirmed a direct binding between CHI3L1 and CD44 (FIG. 3C). Consistent with the notion that many cell types express CD44, they detected CD44 express on various hepatic non-parenchymal cells (NPCs) except B cells and DCs (summarized in Extended Data Table 2). However, when they incubated liver NPCs with His-tagged rCHI3L1, the inventors observed that the only CD44-expressing cells that could bind to CHI3L1 were KCs (FIG. 3D).

Q3UQ71_MOUSE = target: T2, Q3UQ71_MOUSE (mouse, UniProt Q3UQ71 1-554)
T2 construct: also called tr|Q3UQ71|Q3UQ71_MOUSE
T2 sequence: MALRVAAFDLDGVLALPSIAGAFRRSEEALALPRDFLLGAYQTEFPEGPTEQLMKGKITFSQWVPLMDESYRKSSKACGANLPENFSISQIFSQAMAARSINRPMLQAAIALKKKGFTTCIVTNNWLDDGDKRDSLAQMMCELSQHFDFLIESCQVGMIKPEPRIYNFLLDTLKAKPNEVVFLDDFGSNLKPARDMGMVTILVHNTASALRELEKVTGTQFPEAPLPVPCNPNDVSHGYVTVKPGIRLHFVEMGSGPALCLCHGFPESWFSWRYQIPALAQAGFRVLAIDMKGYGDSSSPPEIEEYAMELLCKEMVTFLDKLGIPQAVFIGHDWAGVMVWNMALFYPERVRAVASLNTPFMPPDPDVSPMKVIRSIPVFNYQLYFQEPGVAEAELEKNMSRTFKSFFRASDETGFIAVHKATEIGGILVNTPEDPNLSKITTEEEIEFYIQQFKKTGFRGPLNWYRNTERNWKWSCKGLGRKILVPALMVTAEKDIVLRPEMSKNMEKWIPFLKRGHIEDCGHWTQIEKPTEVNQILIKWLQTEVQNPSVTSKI
Experimental: as §1

Q8C6E3_MOUSE = target: T3, Q8C6E3_MOUSE (mouse, UniProt Q8C6E3 2-527)
T3 construct: also called tr|Q8C6E3|Q8C6E3_MOUSE
T3 sequence: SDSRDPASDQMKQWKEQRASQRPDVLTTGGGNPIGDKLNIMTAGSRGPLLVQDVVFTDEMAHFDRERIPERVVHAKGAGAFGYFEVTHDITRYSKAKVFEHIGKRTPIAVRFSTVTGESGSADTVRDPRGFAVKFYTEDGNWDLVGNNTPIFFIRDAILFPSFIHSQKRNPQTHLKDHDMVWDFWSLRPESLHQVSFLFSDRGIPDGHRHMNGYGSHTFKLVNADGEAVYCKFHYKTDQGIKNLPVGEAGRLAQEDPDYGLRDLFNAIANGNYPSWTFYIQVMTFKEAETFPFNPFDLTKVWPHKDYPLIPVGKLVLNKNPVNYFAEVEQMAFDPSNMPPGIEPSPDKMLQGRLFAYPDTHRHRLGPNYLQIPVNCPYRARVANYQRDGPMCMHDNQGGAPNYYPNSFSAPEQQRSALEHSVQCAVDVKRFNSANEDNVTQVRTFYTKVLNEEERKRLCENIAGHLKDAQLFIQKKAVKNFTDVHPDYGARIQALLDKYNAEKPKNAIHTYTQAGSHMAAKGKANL
Experimental: as §1

T1 sequence (Q5FW97 entry or part of it limits assumed): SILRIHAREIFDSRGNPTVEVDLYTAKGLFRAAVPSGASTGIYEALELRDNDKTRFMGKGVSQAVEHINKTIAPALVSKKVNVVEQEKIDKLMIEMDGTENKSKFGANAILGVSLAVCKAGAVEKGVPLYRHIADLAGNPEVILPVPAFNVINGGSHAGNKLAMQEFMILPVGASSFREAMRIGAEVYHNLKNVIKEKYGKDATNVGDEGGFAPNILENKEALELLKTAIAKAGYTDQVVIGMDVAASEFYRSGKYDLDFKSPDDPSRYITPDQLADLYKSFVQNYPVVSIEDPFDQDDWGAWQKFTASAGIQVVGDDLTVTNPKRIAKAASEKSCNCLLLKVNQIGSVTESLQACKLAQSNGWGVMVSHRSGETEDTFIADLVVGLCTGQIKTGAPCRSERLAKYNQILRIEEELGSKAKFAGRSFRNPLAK

- binding result (Q5FW97_MOUSE): binds
- binding result (Q3UQ71_MOUSE): binds
- binding result (Q8C6E3_MOUSE): binds
B1: recombinant mouse CHI3L1 (ligand)
chain: not shown
notes: His-tagged; also called mCHI3L1; mChi3l1
